This is an account of results in publication PMC11812572.

In assay [1] the target is microtubules polymerised from porcine brain tubulin (GMPCPP-stabilised microtubules and seeds, and dynamic microtubules elongating or nucleated from Atto647N- or Atto647-tubulin) (porcine (endogenous in pig brain)) (UniProt P02550). The assay is described as follows: TIRF microscopy; microtubules elongating from surface-immobilized GMPCPP-seeds severed by laser ablation in 40 nM mScarlet-NuMA^FL and 10 µM Atto647N-tubulin; NuMA microscopy buffer, 30°C; new minus and plus ends scored.

The target is the same in assay [2]. The assay is described as follows: TIRF microscopy; γTuRC nucleation assay: biotinylated mBFP-γTuRC immobilized on the surface, 10 µM Atto647-tubulin and 5-30 nM mScarlet-NuMA^FL; γTuRC-nucleated and spontaneously (solution-) nucleated microtubules compared; γTuRC microscopy buffer, 33°C.

Chain of microtubules polymerised from porcine brain tubulin (GMPCPP-stabilised microtubules and seeds, and dynamic microtubules elongating or nucleated from Atto647N- or Atto647-tubulin) (porcine (endogenous in pig brain)) (P02550 other isoform, or with tags, fused parts or gaps, chain 1 of 2): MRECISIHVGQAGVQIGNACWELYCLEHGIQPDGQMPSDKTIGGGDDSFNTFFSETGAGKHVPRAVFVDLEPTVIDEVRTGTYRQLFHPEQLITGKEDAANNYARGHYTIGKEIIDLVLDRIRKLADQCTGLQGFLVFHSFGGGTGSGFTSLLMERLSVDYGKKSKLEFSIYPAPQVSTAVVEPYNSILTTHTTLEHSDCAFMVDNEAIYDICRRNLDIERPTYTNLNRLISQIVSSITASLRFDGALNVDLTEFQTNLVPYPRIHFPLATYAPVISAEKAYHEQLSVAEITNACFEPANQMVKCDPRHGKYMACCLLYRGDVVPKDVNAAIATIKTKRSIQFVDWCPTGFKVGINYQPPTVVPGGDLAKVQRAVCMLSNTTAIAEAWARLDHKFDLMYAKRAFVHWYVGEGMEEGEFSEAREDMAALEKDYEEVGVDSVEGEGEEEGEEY
Chain of microtubules polymerised from porcine brain tubulin (GMPCPP-stabilised microtubules and seeds, and dynamic microtubules elongating or nucleated from Atto647N- or Atto647-tubulin) (porcine (endogenous in pig brain)) (chain, as listed by the source, chain 2 of 2): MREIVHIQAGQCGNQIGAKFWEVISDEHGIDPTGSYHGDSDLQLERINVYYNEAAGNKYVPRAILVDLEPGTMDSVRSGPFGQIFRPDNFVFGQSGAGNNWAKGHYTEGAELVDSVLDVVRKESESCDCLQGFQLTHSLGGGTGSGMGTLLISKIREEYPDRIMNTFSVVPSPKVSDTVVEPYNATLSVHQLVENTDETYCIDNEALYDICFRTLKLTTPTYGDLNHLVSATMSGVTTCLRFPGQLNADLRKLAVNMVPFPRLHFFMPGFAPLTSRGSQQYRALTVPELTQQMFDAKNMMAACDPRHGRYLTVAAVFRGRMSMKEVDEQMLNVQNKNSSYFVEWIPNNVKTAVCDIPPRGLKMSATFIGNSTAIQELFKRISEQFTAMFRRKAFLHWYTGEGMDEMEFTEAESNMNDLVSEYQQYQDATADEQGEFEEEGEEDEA

For “mScarlet-tagged full-length human NuMA, mScarlet-NuMA^FL, Q14980-1 1-2115”, the percent of ablation-generated minus ends with NuMA bound in assay [1] amounted to 83%. This substance also showed a percent of minus ends of spontaneously nucleated microtubules with strong NuMA accumulation (highest NuMA concentration) in assay [2] of 93%.
